target: T1, Recombinant human Fc-tagged extracellular domain of LILRB2 (human, UniProt Q8N423 22-460); experiment: SPR, Biacore X100; LILRB2-Fc amine-coupled to CM5 chip, antibody injected at 3.7-300 nM
T1 construct: extracellular domain; Bought from R&D Systems; also called LILRB2-Fc; not shown: Fc tag
Experimental: Dissociation constants (Kd) for mouse anti-human LILRB1 and LIRB2 antibodies were determined using a Biacore X100 surface plasmon resonance instrument (Cytivia). Recombinant human Fc-tagged extracellular domains of LILRB1 or LILRB2 (LILRB1-Fc or LILRB2-Fc; R&D Systems) were immobilized on a Biacore CM5 biosensor chip by amine coupling at a density of 40-50 relative units (RU). Purified mouse monoclonal antibodies were injected over the biosensor in a concentration series of 3.7, 11, 33, 100, and 300 nM in HBS-EP buffer (10 mM HEPS pH 7.4, […], 3 mM EDTA, 0.005% v/v Surfactant P20) at a flow rate of 50 μL/min. Regeneration of the chip was achieved by a 30 s injection of 10 mM glycine-HCl, pH 1.7. Affinity parameters were determined by fitting response data using the accompanying Biacore X100 analysis software.

T1 sequence (Q8N423 22-460): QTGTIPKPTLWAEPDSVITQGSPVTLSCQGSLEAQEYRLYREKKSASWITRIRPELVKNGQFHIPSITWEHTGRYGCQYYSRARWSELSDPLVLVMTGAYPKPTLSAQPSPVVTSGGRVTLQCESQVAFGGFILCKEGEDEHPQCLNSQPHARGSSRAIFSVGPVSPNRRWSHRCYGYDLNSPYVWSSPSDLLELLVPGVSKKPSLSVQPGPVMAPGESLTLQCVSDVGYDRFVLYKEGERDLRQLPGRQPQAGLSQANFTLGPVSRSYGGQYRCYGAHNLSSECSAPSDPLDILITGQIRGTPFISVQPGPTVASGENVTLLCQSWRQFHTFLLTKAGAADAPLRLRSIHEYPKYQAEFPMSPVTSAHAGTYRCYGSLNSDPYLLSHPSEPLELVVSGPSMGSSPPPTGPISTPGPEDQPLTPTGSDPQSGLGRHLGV

Binder	-log(Kd)
10A8 (antibody, V domains shown, Entries are printed with leader peptide and part of the mouse constant region; also called LILRB2 antibody 10A8) VH: EVQLVESGGDFVKPGGSLKLSCAASGFTFSSYDMSWVRQTPDKRLEWVATIIRGDSYTYYLDSVKGRFTISRDNAKNTLYLQMSSLKSEDTAMYYCARPSYGNSFDYWGQGTTLTVSS VL: DIVMTQSHKFMSTSIGDRVSITCKASQDVNNAVAWYQQKPGQSPKLLIYAASYRYTGVPDRFTGSGSGTDFTFTISSVQAEDLAVYHCQQHYGIPWTFGGGTKLEIKR	8.77
10D4 (antibody, V domains shown, Entries are printed with leader peptide and part of the mouse constant region; also called LILRB2 antibody 10D4) VH: QVQLQQSDAELVKPGASVKISCKVSGYTFSDHTFHWMKQRPEQGLEWIGYFYPRDGRSKYNEKFRDKATLTADKSSSTAYMQLNSLTSEDSAVYFCTCDGFDYWGQGTTLTVSS VL: DIKMTQSPSSMHASLGERVTITCKASQDINSYLSWFQQKPGKSPKTLIYHADRLVDGVPSRFSGSGSGQDYSLTISSLEYEDMGIYYCLQYDEFPYTFGGGTKLEIKR	7.82
8D2 (antibody, V domains shown, Entries are printed with leader peptide and part of the mouse constant region; also called LILRB2 antibody 8D2) VH: QIQLVQSGPELKKPGETVKISCKASGYTFTTYGMSWVKQAPGKGLKWMGWINTYSGAPAYVDDFKGRFAFSLETSASTAYLQINNLKNEDTATYFCARHFYSGSSYWYFDVWGTGTTVTVSS VL: DIQMTQSPASLSVSVGETVTITCRASENIYSNLAWYQQKQGKSPQLLVYAATNLADGVPSRFSGSGSGTQYSLKINSLQSEDFGSYYCQHFWGTPRTFGGGTKLEIKR	8.43
6B3 (antibody, V domains shown, Entries are printed with leader peptide and part of the mouse constant region (heavy entry ends within CH1); also called LILRB2 antibody 6B3) VH: EVQLQESGPELLKPGASMKISCKASGYTFTDDYMNWVKQSHGKSLEWIGDINPNNGGTSYNQKFKGKATLTVDKSSSTAYMELRSLTSEDSAVYYCARGSPWFAYWGQGTLVTVSA VL: DIQMTQTTSSLSASLGDRVTINCRASQDIRNYLSWYQQKPDGTVKLLIYYTSRLHSGVPSRFSGSGSGRDYSLTISNLEQEDIATYFCQQSNTLPWTFGGGTKLEITR	9.02

Source: patent publication US20240150462A1 (UNIVERSITY HEALTH NETWORK, published 2024)
